# Assay results published in patent publication US20240279281A1, “Peptide Inhibitors of Interleukin-23 Receptor” (Janssen Pharmaceutica NV, priority 2023, published 2024).
# Starred links: 1 amine or outer side, 2 acyl side, 3 side chain; linkers in the order of their positions; H or OH if unused. Positions of bridges follow the written chain, without caps; N, C: chain ends. Non-standard residues stand in square brackets, D forms with d. No end group written: not given here. X3 = 4‑(2-(4-(2-amino-2-carboxyethyl)phenoxy)ethyl)‑4‑methylmorpholin‑4‑ium, C[N+]1(CCOc2ccc(CC(N[*:1])C(=O)[*:2])cc2)CCOCC1; Trp(7-(3-AcNH-Ph)) = CC(=O)Nc1cccc(-c2cccc3c(C[C@H](N)C(=O)O)c[nH]c23)c1; 2Nal(6-OH) = N[C@@H](Cc1ccc2cc(O)ccc2c1)C(=O)O; Trp(7-Me) = Cc1cccc2c(C[C@H](N)C(=O)O)c[nH]c12; AEF = NCCOc1ccc(C[C@H](N)C(=O)O)cc1; 3Pal = N[C@@H](Cc1cccnc1)C(=O)O; d(hLys) = NCCCCC[C@@H](N)C(=O)O; Pen = CC(C)(S)[C@H](N)C(=O)O; Thp = NC1(C(=O)O)CCOCC1; Sar = CNCC(=O)O
# T1: interleukin-23 receptor (IL-23R), Q5VWK5
# T1 chain: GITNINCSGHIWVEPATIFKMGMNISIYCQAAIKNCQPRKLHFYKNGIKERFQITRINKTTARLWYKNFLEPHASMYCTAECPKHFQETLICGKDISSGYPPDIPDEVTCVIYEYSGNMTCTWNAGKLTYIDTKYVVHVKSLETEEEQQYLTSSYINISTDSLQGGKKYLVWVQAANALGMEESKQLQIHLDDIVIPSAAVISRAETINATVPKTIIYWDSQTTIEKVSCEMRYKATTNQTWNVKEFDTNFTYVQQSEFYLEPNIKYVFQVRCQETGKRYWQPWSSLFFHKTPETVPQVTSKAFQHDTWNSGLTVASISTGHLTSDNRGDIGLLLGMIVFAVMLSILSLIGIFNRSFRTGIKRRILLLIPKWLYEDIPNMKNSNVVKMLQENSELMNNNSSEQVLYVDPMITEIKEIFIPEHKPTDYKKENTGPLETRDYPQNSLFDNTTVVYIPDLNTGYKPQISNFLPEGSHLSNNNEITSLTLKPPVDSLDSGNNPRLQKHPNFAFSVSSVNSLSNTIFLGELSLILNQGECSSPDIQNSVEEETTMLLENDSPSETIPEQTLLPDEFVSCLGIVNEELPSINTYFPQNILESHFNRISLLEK
# Target: T1, interleukin-23 receptor (IL-23R), Q5VWK5
# Assay: cell-based or functional assay
Binder,PBMC pSTAT3 IC50,IL23R Reporter Assay IC50 [nM]
"[Pen]NT[Trp(7-Me)]K(Ac)[Pen][AEF][2Nal(6-OH)][Thp]KN[3Pal][Sar] (disulfide 1-6 (inferred); ends not checked; also: K10: lipidated lysine, lipid not given here) [SEQ ID NO: 128]",< 1 nM,–
"[Pen]NT[Trp(7-Me)]K[Pen][AEF][2Nal(6-OH)][Thp]K(Ac)N[3Pal][Sar] (disulfide 1-6 (inferred); not fully specified (residue 5); ends not checked; also: K5: lipidated lysine, lipid not given here) [SEQ ID NO: 96]",< 0.1 nM,–
"R[Pen]NT[Trp(7-Me)]K(Ac)[Pen][AEF][2Nal(6-OH)][Thp]EN[3Pal][Sar]K (disulfide 2-7 (inferred); ends not checked; also: K15: lipidated lysine, lipid not given here) [SEQ ID NO: 116]",< 1 nM,–
"[Pen]NT[Trp(7-Me)]K(Ac)[Pen][AEF][2Nal(6-OH)][Thp]KN[3Pal][Sar] (disulfide 1-6 (inferred); ends not checked; also: K10: lipidated lysine, lipid not given here) [SEQ ID NO: 129]",< 1 nM,–
K[Pen]ET[Trp(7-Me)]K(Ac)[Pen][AEF][2Nal(6-OH)][Thp]K(Ac)N[3Pal][Sar] (disulfide 2-7 (inferred); ends not checked) [SEQ ID NO: 134],< 1 nM,–
R[Pen]NT[Trp(7-(3-AcNH-Ph))]K(Ac)[Pen][X3][2Nal(6-OH)][Thp]EN[Thp] (disulfide 2-7 (inferred); ends not checked) [SEQ ID NO: 110],< 1 nM,–
"[Pen]NT[Trp(7-Me)]K(Ac)[Pen][5‑(4-(2-amino-2-carboxyethyl)phenoxy)‑N,N,N‑trimethylpentan‑1‑aminium][2Nal(6-OH)][Thp]EN[3Pal][Sar] (not fully specified (bridges); ends and bridges not checked) [SEQ ID NO: 79]",< 10 pM,< 10
"K[Pen]NT[Trp(7-Me)]K(Ac)[Pen][AEF][2Nal(6-OH)][Thp]K(Ac)N[3Pal][Sar] (disulfide 2-7 (inferred); ends not checked; also: K1: lipidated lysine, lipid not given here) [SEQ ID NO: 118]",< 1 nM,–
"[d(hLys)](Me3)[Pen]NT[Trp(7-Me)]K[Pen][AEF][2Nal(6-OH)][Thp]K(Ac)N[3Pal][Sar] (disulfide 2-7 (inferred); ends not checked; also: K6: lipidated lysine, lipid not given here) [SEQ ID NO: 119]",< 1 nM,–
"K[Pen]NT[Trp(7-Me)]K(Ac)[Pen][AEF][2Nal(6-OH)][Thp]EN[3Pal][Sar] (disulfide 2-7 (inferred); ends not checked; also: K1: lipidated lysine, lipid not given here) [SEQ ID NO: 126]",< 1 nM,–
"[Pen]NT[Trp(7-Me)]K[Pen][AEF][2Nal(6-OH)][Thp]K(Ac)N[3Pal][Sar] (disulfide 1-6 (inferred); ends not checked; also: K5: lipidated lysine, lipid not given here) [SEQ ID NO: 131]",< 1 nM,–
